Results taken from patent publication US20080305111A1 (VACCINEX, published 2008).

What was measured:
[1] = molecular target: T1, C35 protein (recombinant, construct not stated) (human, UniProt Q9BRT3 1-115, limits assumed); assay: ELISA on C35 or control protein A27L, secreted antibody from HeLa cells
T1 construct: also called recombinant C35 protein; control C35 protein
T1 sequence: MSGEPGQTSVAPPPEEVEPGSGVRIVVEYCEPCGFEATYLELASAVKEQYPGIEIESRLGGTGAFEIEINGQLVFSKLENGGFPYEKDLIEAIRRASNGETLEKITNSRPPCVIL

[2] = molecular target: T1, C35 protein (recombinant, construct not …); assay: ELISA and Western blot
[3] = molecular target: T2, 6×His-tagged recombinant human C35 (human); assay: SPR (Biacore), MAb 163 captured on goat anti-human IgG Fc on a CM5 chip, rC35 in solution, 1:1 kinetic model
T2 construct: Made in E. coli; also called rhC35; rC35

#5 (8454) = molecular target: T3, #5 (8454); assay: Western blot of partially Lys-C digested rhC35, MAb 163, goat anti-human-HRP, TMB
T3 construct: One member of the group m17; also called predicted partial Lys-C digest fragment #5 of rhC35; 8kDa N-terminal fragment
T3 N-terminal fragment of 6-His-tagged rhC35, from the N-terminus to the first Lys-C tick: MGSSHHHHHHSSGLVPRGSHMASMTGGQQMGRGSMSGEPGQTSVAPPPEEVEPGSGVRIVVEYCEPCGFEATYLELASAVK

B1: MAb 165 (antibody, V domains shown)
VH: QVQLQESGPGLVKPPETLSLTCNVSGGSIGRYYWNWIRQSPGKGLEWIGHIHYSGSTIYHPSLKSRVSISLDTSKNQVSLKLSSVTAADTAVYYCARGAYYGGAFFPYFDVWGQGTTVTVSS
VL: DIQMTQSPSSLSASMGDRVTITCRASQGIRNHLAWYQQKPGKAPNLLISAASTLQSGVPTRFSGSGSGTDFTLTISSLQPEDSATYYCQQYNRYPLTFGQGTKLEIK
notes: also called 141D10 VH H732 with UH8 VK L120
binding result [1]: binds

B2: 1B3 murine anti-C35 monoclonal antibody (antibody, V domains shown)
VH: EVQLQESGPSLVKPSQTLSLTCSVTGDSITSGYWNWIRKFPGNKLEYVGYISYSGGTYYNPSLKSRISITRDTSKNHYYLQLNSVTTEDTATYYCARGAYYGGAFFPYFDVWGAGTTVTVSS
VL: DVQITQSPSFLAASPGETITINCRASKYISKHLVWYQEKPGETKKLLIYSGSTLQSGLPSRFSGSGSGTDFTLTISSLEPEDFAMYYCQQHNEYPLTFGAGTKLELK
notes: also called hybridoma 1B3.6.1
binding result [2]: binds

B3: MAb 163 human anti-C35 monoclonal antibody (antibody, V domains shown)
VH: EVQLVESGGGLVKPGGSLRLSCEVSGITFSNAWMSWVRQAPGKGLEWVGRIKSKTDGGTTDYAAPVKGRFTISRDDSKNTLYLQMNSLKTEDTAVYYCSIGYYYDSSFKYGMDVWGQGTTVTVSS
VL: DIQMTQSPATLSASVGDRVTITCRASQSISRWLAWYQQKPGQAPKVLIYKASTLQSGVPSRFSGSGSGTEFSLTINSLQPDDFATYYCQQYYSYLRTFGQGTKLEIK
notes: Fully human antibody (clones H730 and L74), detected or captured with anti-human IgG reagents
Ka [3]: 2.96e+08 M⁻¹ | Kd [3]: 3.38 nM | koff [3]: 0.000959 s⁻¹ | kon [3]: 284000 M⁻¹ s⁻¹ | binding result (#5 (8454)): no binding
